Test results: PMC9029856, “Impact of Different [Tc(N)PNP]-Scaffolds on the Biological Properties of the Small cRGDfK Peptide: Synthesis, In Vitro and In Vivo Evaluations” (Molecules, 2022)
Values joined by “and” are separate entries in the source; they are usually repeats but may differ in a detail not shown here. Equal values may be shown once. Read-outs that look alike come from different tables or passages of the source.

Legend:
[1] = parameters: species or system Sprague Dawley rats; details: rat, in vivo, iv, 15 uCi/100 uL
Description: Pharmacokinetics and metabolism.
Female Sprague Dawley rats weighing 180–200 g were anesthetized with an intraperitoneal injection of a mixture of Zoletil (40 mg/kg) and xylazine (2 mg/kg). A jugular vein was surgically exposed, and the solution containing the radiolabeled peptide was injected (15 µCi/100 µL). The rats (n = 3) were scarified by cervical dislocation at different times after injection. The blood was withdrawn from the heart with a syringe immediately after death and quantified. Organs were excised, rinsed in saline, weighed, and the activity was counted in a NaI counter. The results were expressed as the percentage of injected activity per gram of tissue (%IA/g) to be able to compare our results with those reported in the literature.

[2] = system: M21 (αvβ3-positive) and M21L (αvβ3-negative) melanoma tumors; assay type: in vivo, NSG mice; details: 120 min p.i.; for M21L tumor uptake: integrin-negative M21L control tumor; for M21 tumor uptake: integrin-positive M21 xenograft; for Blood / Heart / Intestine / Kidneys / Liver / Lungs / Muscle / Spleen / Stomach: tumor-bearing mice
Description: In vivo tumor uptake. The in vivo integrin targeting properties of the [^99mTcN(PNP)]-labeled peptide were evaluated in M21 (integrin-positive) and M21L (integrin-negative) melanoma-bearing mice by comparing the percentage of tumor uptake of the three compounds in tumors and the respective target-to-non-target ratios. Biodistribution data outlined some differences in organ uptake compared with those attained in rats at the same injection time because the rate of metabolism is different in each animal species. […] The high renal uptake of radiotracers is partially due to their rate of excretion as well as to a specific uptake by integrins expression in the kidneys; for ^99mTc3, the M21-to-kidney ratio was 1.37.
Human melanoma M21(αvβ3-positive) were injected subcutaneously (s.c. 1 × 10^6 cells) in the right flank of six week-old male NSG mice (Charles River Laboratories). As a negative control, M21L (αvβ3-negative) were inoculated s.c. (1 × 10^6 cells) in the left flank of the same mice. Fifteen days after the inoculation, when the tumors are palpable (5–3 mm), the mice were injected in the tail vein with the selected radiolabeled peptide (20 µCi/100 µL of PBS). A group of six animals was sacrificed at 120 min p.i. by CO2 inhalation. A sample of blood was collected and tumors and normal tissues of interest were dissected, rinsed to remove the excess of blood, weighted, and their radioactivity measured using a NaI counter. Results are expressed as the percentage of injected activity per gram (% IA/g) and tumor-to-organ ratios were calculated.

[3] = assay type: physicochemical
Description: To explore the impact of the PNP ligand on the lipophilicity of the complexes, Log Ps in a mixture of n-octanol and PBS were determined. The lipophilicity decreased in the order ^99mTc1 > ^99mTc2 > ^99mTc3. The lipophilic character of each compound correlated well with the corresponding HPLC retention time and protein binding behavior.
Determination of log P values. n-Octanol/PBS partition coefficients were determined by vortex mixing (20 min) 3.0 mL of n-octanol, 3.0 mL of PBS and 100 µL of the radiolabeled compound purified as above. After centrifugation (3000 g for 10 min), aliquots (100 µL) of both the organic and the aqueous phases were collected and counted with a γ-counter.

[4] = parameters: species or system Sprague Dawley rats; details: rat, in vivo
Description: As expected, MRT values of liver and kidneys were much higher than the dose of stomach, spleen, lung, and heart.
The time–activity curves of the main organs were obtained using the biodistribution data (%IA/organ) as input for the CoKiMo spreadsheet software. Then, the organ mean residence times (MRT) were computed by integration of the organ activity curves, extrapolated until 5 half-lives of Tc-99m (30 h) and corrected for its physical decay, to evaluate the pharmacokinetic profile of each radiolabeled peptide.

[Tc(N)(H2NS-cRGDfK)(PNP3)]^+ [^99mTc1]
Blood ([1]; 0.5 h): 0.81 ± 0.05 %IA/g
Heart ([1]; 0.5 h): 0.26 ± 0.05 %IA/g
Intestine ([1]; 0.5 h): 0.65 ± 0.16 %IA/g
Kidneys ([1]; 0.5 h): 2.71 ± 0.18 %IA/g
Liver ([1]; 0.5 h): 0.96 ± 0.10 %IA/g
Lungs ([1]; 0.5 h): 0.64 ± 0.09 %IA/g
Muscle ([1]; 0.5 h): 0.21 ± 0.09 %IA/g
Spleen ([1]; 0.5 h): 0.65 ± 0.09 %IA/g
Stomach ([1]; 0.5 h): 0.53 ± 0.07 %IA
Urine ([1]; 0.5 h): 27.2 ± 11.7 %IA
Blood ([1]; 1 h): 0.30 ± 0.04 %IA/g
Heart ([1]; 1 h): 0.15 ± 0.01 %IA/g
Intestine ([1]; 1 h): 0.60 ± 0.12 %IA/g
Kidneys ([1]; 1 h): 1.57 ± 0.13 %IA/g
Liver ([1]; 1 h): 0.75 ± 0.02 %IA/g
Lungs ([1]; 1 h): 0.43 ± 0.01 %IA/g
Muscle ([1]; 1 h): 0.13 ± 0.06 %IA/g
Spleen ([1]; 1 h): 0.51 ± 0.04 %IA/g
Stomach ([1]; 1 h): 0.41 ± 0.02 %IA
Urine ([1]; 1 h): 33.1 ± 5.6 %IA
Blood ([1]; 2 h): 0.09 ± 0.01 %IA/g
Heart ([1]; 2 h): 0.10 ± 0.02 %IA/g
Intestine ([1]; 2 h): 0.40 ± 0.07 %IA/g
Kidneys ([1]; 2 h): 0.92 ± 0.20 %IA/g
Liver ([1]; 2 h): 0.68 ± 0.06 %IA/g
Lungs ([1]; 2 h): 0.25 ± 0.03 %IA/g
Muscle ([1]; 2 h): 0.10 ± 0.06 %IA/g
Spleen ([1]; 2 h): 0.47 ± 0.04 %IA/g
Stomach ([1]; 2 h): 0.34 ± 0.04 %IA
Urine ([1]; 2 h): 54.3 ± 1.9 %IA
Blood ([1]; 4 h): 0.05 ± 0.01 %IA/g
Heart ([1]; 4 h): 0.08 ± 0.01 %IA/g
Intestine ([1]; 4 h): 0.38 ± 0.01 %IA/g
Kidneys ([1]; 4 h): 0.88 ± 0.09 %IA/g
Liver ([1]; 4 h): 0.66 ± 0.07 %IA/g
Lungs ([1]; 4 h): 0.16 ± 0.04 %IA/g
Muscle ([1]; 4 h): 0.06 ± 0.01 %IA/g
Spleen ([1]; 4 h): 0.45 ± 0.00 %IA/g
Stomach ([1]; 4 h): 0.29 ± 0.02 %IA
Urine ([1]; 4 h): 55.9 ± 7.1 %IA
M21/M21L ratio [2]: 1.83
M21/blood ratio [2]: 29.96
M21/kidneys ratio [2]: 0.77
M21/liver ratio [2]: 0.88
M21/lung ratio [2]: 2.53
M21/muscle ratio [2]: 9.15
M21L tumor uptake [2]: 1.73 ± 0.19 %IA/g
M21 tumor uptake [2]: 3.2 ± 0.6 %IA/g and 3.17 ± 0.60 %IA/g
Blood [2]: 0.07 ± 0.02 %IA/g
Heart [2]: 0.47 ± 0.03 %IA/g
Intestine [2]: 2.30 ± 0.10 %IA/g
Kidneys [2]: 4.10 ± 0.37 %IA/g
Liver [2]: 3.59 ± 0.31 %IA/g
Lungs [2]: 1.25 ± 0.23 %IA/g
Muscle [2]: 0.37 ± 0.04 %IA/g
Spleen [2]: 1.61 ± 0.01 %IA/g
Stomach [2]: 1.22 ± 0.15 %IA
Log P [3]: −1.72 ^1
MRT Blood [4]: 14.7 min
MRT Heart [4]: 0.3 min
MRT Kidney [4]: 9.2 min
MRT Liver [4]: 30.5 min
MRT Lung [4]: 0.9 min
MRT Spleen [4]: 1.2 min
MRT Stomach [4]: 1.5 min

[Tc(N)(H2NS-cRGDfK)(PNP43)]^+ [^99mTc2]
Blood ([1]; 0.5 h): 0.65 ± 0.04 %IA/g
Heart ([1]; 0.5 h): 0.30 ± 0.01 %IA/g
Intestine ([1]; 0.5 h): 1.19 ± 0.14 %IA/g
Kidneys ([1]; 0.5 h): 6.77 ± 0.86 %IA/g
Liver ([1]; 0.5 h): 0.90 ± 0.13 %IA/g
Lungs ([1]; 0.5 h): 0.82 ± 0.09 %IA/g
Muscle ([1]; 0.5 h): 0.22 ± 0.03 %IA/g
Spleen ([1]; 0.5 h): 0.47 ± 0.02 %IA/g
Stomach ([1]; 0.5 h): 0.82 ± 0.07 %IA
Urine ([1]; 0.5 h): 17.7 ± 3.6 %IA
Blood ([1]; 1 h): 0.35 ± 0.07 %IA/g
Heart ([1]; 1 h): 0.20 ± 0.04 %IA/g
Intestine ([1]; 1 h): 1.69 ± 0.17 %IA/g
Kidneys ([1]; 1 h): 6.20 ± 0.68 %IA/g
Liver ([1]; 1 h): 0.73 ± 0.01 %IA/g
Lungs ([1]; 1 h): 0.56 ± 0.10 %IA/g
Muscle ([1]; 1 h): 0.14 ± 0.03 %IA/g
Spleen ([1]; 1 h): 0.40 ± 0.05 %IA/g
Stomach ([1]; 1 h): 0.64 ± 0.08 %IA
Urine ([1]; 1 h): 28.5 ± 4.6 %IA
Blood ([1]; 2 h): 0.19 ± 0.04 %IA/g
Heart ([1]; 2 h): 0.15 ± 0.06 %IA/g
Intestine ([1]; 2 h): 1.94 ± 0.25 %IA/g
Kidneys ([1]; 2 h): 5.51 ± 0.42 %IA/g
Liver ([1]; 2 h): 0.57 ± 0.03 %IA/g
Lungs ([1]; 2 h): 0.42 ± 0.02 %IA/g
Muscle ([1]; 2 h): 0.12 ± 0.01 %IA/g
Spleen ([1]; 2 h): 0.38 ± 0.04 %IA/g
Stomach ([1]; 2 h): 0.51 ± 0.08 %IA
Urine ([1]; 2 h): 41.5 ± 4.5 %IA
Blood ([1]; 4 h): 0.11 ± 0.02 %IA/g
Heart ([1]; 4 h): 0.12 ± 0.01 %IA/g
Intestine ([1]; 4 h): 1.90 ± 0.19 %IA/g
Kidneys ([1]; 4 h): 4.27 ± 0.31 %IA/g
Liver ([1]; 4 h): 0.52 ± 0.07 %IA/g
Lungs ([1]; 4 h): 0.34 ± 0.04 %IA/g
Muscle ([1]; 4 h): 0.09 ± 0.00 %IA/g
Spleen ([1]; 4 h): 0.34 ± 0.07 %IA/g
Stomach ([1]; 4 h): 0.41 ± 0.09 %IA
Urine ([1]; 4 h): 43.5 ± 3.4 %IA
M21/M21L ratio [2]: 2.57
M21/blood ratio [2]: 11.26
M21/kidneys ratio [2]: 0.32
M21/liver ratio [2]: 0.44
M21/lung ratio [2]: 1.04
M21/muscle ratio [2]: 3.54
M21L tumor uptake [2]: 0.42 ± 0.05 %IA/g
M21 tumor uptake [2]: 1.1 ± 0.2 %IA/g and 1.08 ± 0.24 %IA/g
Blood [2]: 0.12 ± 0.03 %IA/g
Heart [2]: 0.48 ± 0.07 %IA/g
Intestine [2]: 2.45 ± 0.29 %IA/g
Kidneys [2]: 3.38 ± 0.36 %IA/g
Liver [2]: 2.43 ± 0.23 %IA/g
Lungs [2]: 1.04 ± 0.08 %IA/g
Muscle [2]: 0.31 ± 0.05 %IA/g
Spleen [2]: 1.26 ± 0.04 %IA/g
Stomach [2]: 1.02 ± 0.16 %IA
Log P [3]: −1.95
MRT Blood [4]: 16.9 min
MRT Heart [4]: 0.4 min
MRT Kidney [4]: 30.7 min
MRT Liver [4]: 25.9 min
MRT Lung [4]: 1.6 min
MRT Spleen [4]: 0.8 min
MRT Stomach [4]: 2.1 min
